Data: patent US20150164995A1 (Sanofi, published 2015)
Like-named read-outs stand apart in the source and are kept apart here. Square brackets hold non-standard residues; d marks the D form. Ends that are not written are not given here. Nle = CCCC[C@H](N)C(=O)O; Aib = CC(C)(N)C(=O)O

T1: human GIP receptor (human, UniProt P48546 22-466)
T1 sequence (looked up): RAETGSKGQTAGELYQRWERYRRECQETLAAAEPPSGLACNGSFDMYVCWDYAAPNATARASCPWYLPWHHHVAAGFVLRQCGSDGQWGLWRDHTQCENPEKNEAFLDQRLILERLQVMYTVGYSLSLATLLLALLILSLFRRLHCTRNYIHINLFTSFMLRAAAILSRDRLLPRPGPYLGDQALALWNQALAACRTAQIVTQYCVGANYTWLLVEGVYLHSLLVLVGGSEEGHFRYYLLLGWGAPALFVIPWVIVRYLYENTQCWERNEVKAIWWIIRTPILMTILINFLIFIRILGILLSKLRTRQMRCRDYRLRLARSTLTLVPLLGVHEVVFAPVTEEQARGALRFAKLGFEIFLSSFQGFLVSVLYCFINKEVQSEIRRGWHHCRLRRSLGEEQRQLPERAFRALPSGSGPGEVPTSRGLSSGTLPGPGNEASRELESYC

B1: SEQ ID NO: 10 (peptide)
peptide: Y[Aib]EGTFTSDLSIQ[Nle]EKRAA[Aib]EFIEWLKAGGPSSGAPPPS-NH2
modifications: N-terminus assumed
SMILES: CCCC[C@H](NC(=O)[C@H](CCC(N)=O)NC(=O)[C@@H](NC(=O)[C@H](CO)NC(=O)[C@H](CC(C)C)NC(=O)[C@H](CC(=O)O)NC(=O)[C@H](CO)NC(=O)[C@@H](NC(=O)[C@H](Cc1ccccc1)NC(=O)[C@@H](NC(=O)CNC(=O)[C@H](CCC(=O)O)NC(=O)C(C)(C)NC(=O)[C@@H](N)Cc1ccc(O)cc1)[C@@H](C)O)[C@@H](C)O)[C@@H](C)CC)C(=O)N[C@@H](CCC(=O)O)C(=O)N[C@@H](CCCCN)C(=O)N[C@@H](CCCNC(=N)N)C(=O)N[C@@H](C)C(=O)N[C@@H](C)C(=O)NC(C)(C)C(=O)N[C@@H](CCC(=O)O)C(=O)N[C@@H](Cc1ccccc1)C(=O)N[C@H](C(=O)N[C@@H](CCC(=O)O)C(=O)N[C@@H](Cc1c[nH]c2ccccc12)C(=O)N[C@@H](CC(C)C)C(=O)N[C@@H](CCCCN)C(=O)N[C@@H](C)C(=O)NCC(=O)NCC(=O)N1CCC[C@H]1C(=O)N[C@@H](CO)C(=O)N[C@@H](CO)C(=O)NCC(=O)N[C@@H](C)C(=O)N1CCC[C@H]1C(=O)N1CCC[C@H]1C(=O)N1CCC[C@H]1C(=O)N[C@@H](CO)C(N)=O)[C@@H](C)CC
B2: SEQ ID NO: 11 (peptide)
peptide: Y[Aib]EGTFTSDLSIQLEKRAA[Aib]EFIEWLKAGGPSSGAPPPSK-NH2
modifications: N-terminus assumed
SMILES: CC[C@H](C)[C@H](NC(=O)[C@H](CO)NC(=O)[C@H](CC(C)C)NC(=O)[C@H](CC(=O)O)NC(=O)[C@H](CO)NC(=O)[C@@H](NC(=O)[C@H](Cc1ccccc1)NC(=O)[C@@H](NC(=O)CNC(=O)[C@H](CCC(=O)O)NC(=O)C(C)(C)NC(=O)[C@@H](N)Cc1ccc(O)cc1)[C@@H](C)O)[C@@H](C)O)C(=O)N[C@@H](CCC(N)=O)C(=O)N[C@@H](CC(C)C)C(=O)N[C@@H](CCC(=O)O)C(=O)N[C@@H](CCCCN)C(=O)N[C@@H](CCCNC(=N)N)C(=O)N[C@@H](C)C(=O)N[C@@H](C)C(=O)NC(C)(C)C(=O)N[C@@H](CCC(=O)O)C(=O)N[C@@H](Cc1ccccc1)C(=O)N[C@H](C(=O)N[C@@H](CCC(=O)O)C(=O)N[C@@H](Cc1c[nH]c2ccccc12)C(=O)N[C@@H](CC(C)C)C(=O)N[C@@H](CCCCN)C(=O)N[C@@H](C)C(=O)NCC(=O)NCC(=O)N1CCC[C@H]1C(=O)N[C@@H](CO)C(=O)N[C@@H](CO)C(=O)NCC(=O)N[C@@H](C)C(=O)N1CCC[C@H]1C(=O)N1CCC[C@H]1C(=O)N1CCC[C@H]1C(=O)N[C@@H](CO)C(=O)N[C@@H](CCCCN)C(N)=O)[C@@H](C)CC
B3: SEQ ID NO: 9 (peptide)
peptide: Y[Aib]EGTFTSDLSIQLEKRAA[Aib]EFIEWLKAGGPSSGAPPPS-NH2
modifications: N-terminus assumed
SMILES: CC[C@H](C)[C@H](NC(=O)[C@H](CO)NC(=O)[C@H](CC(C)C)NC(=O)[C@H](CC(=O)O)NC(=O)[C@H](CO)NC(=O)[C@@H](NC(=O)[C@H](Cc1ccccc1)NC(=O)[C@@H](NC(=O)CNC(=O)[C@H](CCC(=O)O)NC(=O)C(C)(C)NC(=O)[C@@H](N)Cc1ccc(O)cc1)[C@@H](C)O)[C@@H](C)O)C(=O)N[C@@H](CCC(N)=O)C(=O)N[C@@H](CC(C)C)C(=O)N[C@@H](CCC(=O)O)C(=O)N[C@@H](CCCCN)C(=O)N[C@@H](CCCNC(=N)N)C(=O)N[C@@H](C)C(=O)N[C@@H](C)C(=O)NC(C)(C)C(=O)N[C@@H](CCC(=O)O)C(=O)N[C@@H](Cc1ccccc1)C(=O)N[C@H](C(=O)N[C@@H](CCC(=O)O)C(=O)N[C@@H](Cc1c[nH]c2ccccc12)C(=O)N[C@@H](CC(C)C)C(=O)N[C@@H](CCCCN)C(=O)N[C@@H](C)C(=O)NCC(=O)NCC(=O)N1CCC[C@H]1C(=O)N[C@@H](CO)C(=O)N[C@@H](CO)C(=O)NCC(=O)N[C@@H](C)C(=O)N1CCC[C@H]1C(=O)N1CCC[C@H]1C(=O)N1CCC[C@H]1C(=O)N[C@@H](CO)C(N)=O)[C@@H](C)CC
B4: SEQ ID NO: 12 (peptide)
peptide: Y[Aib]EGTFTSDLSIQLDKRAA[Aib]EFIEWLKAGGPSSGAPPPS-NH2
modifications: N-terminus assumed
SMILES: CC[C@H](C)[C@H](NC(=O)[C@H](CO)NC(=O)[C@H](CC(C)C)NC(=O)[C@H](CC(=O)O)NC(=O)[C@H](CO)NC(=O)[C@@H](NC(=O)[C@H](Cc1ccccc1)NC(=O)[C@@H](NC(=O)CNC(=O)[C@H](CCC(=O)O)NC(=O)C(C)(C)NC(=O)[C@@H](N)Cc1ccc(O)cc1)[C@@H](C)O)[C@@H](C)O)C(=O)N[C@@H](CCC(N)=O)C(=O)N[C@@H](CC(C)C)C(=O)N[C@@H](CC(=O)O)C(=O)N[C@@H](CCCCN)C(=O)N[C@@H](CCCNC(=N)N)C(=O)N[C@@H](C)C(=O)N[C@@H](C)C(=O)NC(C)(C)C(=O)N[C@@H](CCC(=O)O)C(=O)N[C@@H](Cc1ccccc1)C(=O)N[C@H](C(=O)N[C@@H](CCC(=O)O)C(=O)N[C@@H](Cc1c[nH]c2ccccc12)C(=O)N[C@@H](CC(C)C)C(=O)N[C@@H](CCCCN)C(=O)N[C@@H](C)C(=O)NCC(=O)NCC(=O)N1CCC[C@H]1C(=O)N[C@@H](CO)C(=O)N[C@@H](CO)C(=O)NCC(=O)N[C@@H](C)C(=O)N1CCC[C@H]1C(=O)N1CCC[C@H]1C(=O)N1CCC[C@H]1C(=O)N[C@@H](CO)C(N)=O)[C@@H](C)CC

Assays:
Assay in all cases: cell-based or functional assay
[1] = target: human glucagon receptor (human) (UniProt P47871)
Sequence of human glucagon receptor (human) (P47871 26-477): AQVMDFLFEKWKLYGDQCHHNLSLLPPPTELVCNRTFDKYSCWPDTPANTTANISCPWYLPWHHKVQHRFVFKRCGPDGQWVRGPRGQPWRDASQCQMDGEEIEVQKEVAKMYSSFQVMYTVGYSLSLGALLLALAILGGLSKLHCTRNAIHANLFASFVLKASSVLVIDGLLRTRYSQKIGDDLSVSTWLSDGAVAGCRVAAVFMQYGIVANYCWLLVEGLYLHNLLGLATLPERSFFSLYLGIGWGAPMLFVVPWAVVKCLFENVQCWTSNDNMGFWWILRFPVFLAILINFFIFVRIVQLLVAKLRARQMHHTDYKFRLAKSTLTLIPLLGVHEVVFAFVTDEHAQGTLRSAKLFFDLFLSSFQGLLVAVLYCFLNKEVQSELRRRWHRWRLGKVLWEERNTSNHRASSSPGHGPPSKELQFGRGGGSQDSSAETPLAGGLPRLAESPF

[2] = target: human GLP-1 receptor (human) (UniProt P43220)
Sequence of human GLP-1 receptor (human) (P43220 24-463): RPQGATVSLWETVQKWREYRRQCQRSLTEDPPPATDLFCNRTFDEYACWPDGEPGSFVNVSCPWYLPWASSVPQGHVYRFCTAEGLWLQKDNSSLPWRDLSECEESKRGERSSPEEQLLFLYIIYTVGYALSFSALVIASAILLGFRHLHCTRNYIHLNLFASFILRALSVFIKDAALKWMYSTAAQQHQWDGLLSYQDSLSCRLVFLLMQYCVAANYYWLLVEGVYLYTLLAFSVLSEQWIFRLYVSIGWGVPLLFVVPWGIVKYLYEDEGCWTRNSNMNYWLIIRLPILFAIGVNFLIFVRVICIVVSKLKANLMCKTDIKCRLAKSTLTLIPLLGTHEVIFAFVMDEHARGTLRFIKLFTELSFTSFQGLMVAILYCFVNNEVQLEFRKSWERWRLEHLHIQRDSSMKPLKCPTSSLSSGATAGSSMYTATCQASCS

human glucagon receptor = human glucagon receptor (human, UniProt P47871 26-477)
Sequence of human glucagon receptor (P47871 26-477): as the sequence (P47871 26-477) above

human GLP-1 receptor [3] = target: T2, human GLP-1 receptor (human, UniProt P43220 24-463)
human GIP receptor [4] = target: T1, human GIP receptor
human GLP-1 receptor [5] = target: T2, human GLP-1 receptor; remark: listed apart in the source
Target sequence in this assay (P43220 24-463): as the sequence (P43220 24-463) above

human GIP receptor [6] = target: T1, human GIP receptor; remark: listed apart in the source

Row | Molecule | EC50 hGlucagon R [pM] (cAMP formation, HTRF, HEK-293 cells) [1] | EC50 hGLP-1 R [pM] (cAMP formation, HTRF, HEK-293 cells) [2] | EC50 hGLUC R [pM] (cAMP formation, HTRF, HEK-293 cells) (human glucagon receptor) | EC50 hGLP-1 R [pM] (cAMP formation, HTRF, HEK-293 cells) (human GLP-1 receptor [3]) | EC50 hGlP R [pM] (cAMP formation, HTRF, HEK-293 cells) (human GIP receptor [4]) | EC50 hGLP-1 R [pM] (cAMP formation, HTRF, HEK-293 cells) (human GLP-1 receptor [5]) | EC50 hGlP R [pM] (cAMP formation, HTRF, HEK-293 cells) (human GIP receptor [6])
1 | exendin-4 (peptide) | > 1e+07 | 0.4 | – | – | – | – | –
2 | B1 | – | – | 193000 | 1.4 | 12.4 | – | –
3 | YAEGTFTSDVSIYLEGQAAKEFIAWLVKGR (ends and bridges not checked) [Tyr(1)Ile(12)-GLP1] | – | – | – | – | – | 5 | 3660
4 | B2 | – | – | 129000 | 1.6 | 14.1 | – | –
5 | Y[Aib]EGTFTSDLSIQMEKRAA[Aib]EFIEWLKAGGPSSGAPPPS-NH2 [SEQ ID NO: 8] | – | – | > 1e+06 | 1.5 | 14.4 | – | –
6 | B3 | – | – | 155000 | 1.2 | 7.9 | – | –
7 | B4 | – | – | 17900 | 2.6 | 17.9 | – | –
